Assay results taken from US20220112291A1 (Pfizer, published 2022).

Legend:
[1] = target: human CD1a expressed on cells (human, UniProt P06126 17-327); test: cell-based or functional assay
[2] = target: T1, human single-chain CD1a-β2M recombinant protein (Human B2M-CD1a ECD-Avi-His6) (human); test: SPR (Biacore), IgG; antigen taken as human CD1a
T1 construct: Biotinylated in the HTRF, phage selection and Gyrolab assays; also called human CD1a; CD1a protein
T1 sequence (chain, as listed by the source limits assumed): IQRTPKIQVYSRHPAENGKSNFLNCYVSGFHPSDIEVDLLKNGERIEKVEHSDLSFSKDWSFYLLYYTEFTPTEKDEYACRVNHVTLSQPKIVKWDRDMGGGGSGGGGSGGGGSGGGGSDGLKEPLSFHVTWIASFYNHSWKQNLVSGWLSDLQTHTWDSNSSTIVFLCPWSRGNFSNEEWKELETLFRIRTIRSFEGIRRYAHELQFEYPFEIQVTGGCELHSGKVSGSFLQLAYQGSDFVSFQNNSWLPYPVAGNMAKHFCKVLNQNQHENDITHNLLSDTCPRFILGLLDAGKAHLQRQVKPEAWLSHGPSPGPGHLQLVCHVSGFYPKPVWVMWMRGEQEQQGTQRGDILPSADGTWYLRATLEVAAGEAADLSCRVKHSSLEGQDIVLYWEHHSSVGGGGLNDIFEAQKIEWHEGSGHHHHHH

Sequence of human CD1a expressed on cells (P06126 17-327): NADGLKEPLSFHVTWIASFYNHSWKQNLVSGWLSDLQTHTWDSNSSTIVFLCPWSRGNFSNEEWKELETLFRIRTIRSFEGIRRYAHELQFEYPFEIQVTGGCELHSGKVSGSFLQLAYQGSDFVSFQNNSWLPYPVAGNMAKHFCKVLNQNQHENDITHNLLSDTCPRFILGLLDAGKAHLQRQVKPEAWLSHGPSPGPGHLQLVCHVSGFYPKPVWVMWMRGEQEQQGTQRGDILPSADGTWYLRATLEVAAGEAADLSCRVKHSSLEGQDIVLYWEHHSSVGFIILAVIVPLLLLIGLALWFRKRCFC

Row | Binder | Inhibition of CD69 expression, IC50 [1] [nM] | Kd [2] [nM] | Inhibition of IL-2 production, IC50 [1] [nM]
1 | Ab556 (antibody, human IgG1, kappa, V domains shown, Optimized variant of Ab138; human IgG1 effector null / kappa; HC with or without terminal lysine) VH: EVQLVESGGGLVQPGGSLRLSCAASGFTFTDHYMHWVRQAPGKGLEWVAFIRNSAGGYTTESNPAVKGRFTISRDNAKNSLYLQMNSLRAEDTAVYYCARETTRIPTGWFAYWGQGTLVTVSS VL: DIQMTQSPSSLSASVGDRVTITCLASEDIYFDLAWYQQKPGKAPKLLIYGGDRLKEGVPSRFSGSGSGTDYTLTISSLQPEDFATYYCQQSESYPYTFGQGTKLEIKR | 0.73 | 0.1 | –
2 | Ab492 (antibody, human IgG1, kappa, V domains shown, Optimized variant of Ab138; human IgG1 effector null / kappa; HC with or without terminal lysine) VH: EVQLVESGGGLVQPGGSLRLSCAASGFTFTDHYMTWVRQAPGKGLEWVAFIRNKANGYTTESNPAVKGRFTISRDNAKNSLYLQMNSLRAEDTAVYYCARETTGIPTGWFAYWGQGTLVTVSS VL: DIQMTQSPSSLSASVGDRVTITCLASEDIYFDLAWYQQKPGKAPKLLIYGGDRLKEGVPSRFSGSGSGTDYTLTISSLQPEDFATYYCQQSESYPYTFGQGTKLEIKR | 1.18 | 0.77 | –
3 | Ab657 (antibody, human IgG1, kappa, V domains shown, Optimized variant of Ab138; human IgG1 effector null / kappa; HC with or without terminal lysine) VH: EVQLVESGGGLVQPGGSLRLSCAASGFTFTDHYMHWVRQAPGKGLEWVAHTRDKAGGYTTESNPAVKGRFTISRDNAKNSLYLQMNSLRAEDTAVYYCARETTRIPTGWFAYWGQGTLVTVSS VL: DIQMTQSPSSLSASVGDRVTITCLASEDIYFDLAWYQQKPGKAPKLLIYGASTPKDGVPSRFSGSGSGTDYTLTISSLQPEDFATYYCQQSEKYPYTFGQGTKLEIKR | 0.51 | 0.41 | 0.19
4 | Ab623 (antibody, human IgG1, kappa, V domains shown, Optimized variant of Ab138; human IgG1 effector null / kappa; HC with or without terminal lysine) VH: EVQLVESGGGLVQPGGSLRLSCAASGFTFEDHYMHWVRQAPGKGLEWVAHTRDKAGGYTTESNPAVKGRFTISRDNAKNSLYLQMNSLRAEDTAVYYCARETTRIPTGWFAYWGQGTLVTVSS VL: DIQMTQSPSSLSASVGDRVTITCLASEDIYFDLAWYQQKPGKAPKLLIYGGDRLKEGVPSRFSGSGSGTDYTLTISSLQPEDFATYYCQQSYSYPYTFGQGTKLEIKR | 0.35 | 0.56 | 0.17
5 | Ab491 (antibody, human IgG1, kappa, V domains shown, Optimized variant of Ab138; human IgG1 effector null / kappa; HC with or without terminal lysine) VH: EVQLVESGGGLVQPGGSLRLSCAASGFTFTDHYMTWVRQAPGKGLEWVAFIRNKANGYTTESNPAVKGRFTISRDNAKNSLYLQMNSLRAEDTAVYYCARETTGIPTGWFAYWGQGTLVTVSS VL: DIQMTQSPSSLSASVGDRVTITCLASEDIYFDLAWYQQKPGKAPKLLIYGGDRLKEGVPSRFSGSGSGTDYTLTISSLQPEDFATYYCQQSYSYPYTFGQGTKLEIKR | 1.18 | 0.62 | –
6 | Ab504 (antibody, human IgG1, kappa, V domains shown, Optimized variant of Ab138; human IgG1 effector null / kappa; HC with or without terminal lysine) VH: EVQLVESGGGLVQPGGSLRLSCAASGFTFTDHYMHWVRQAPGKGLEWVAFIRNKAGGYTTESNPAVKGRFTISRDNAKNSLYLQMNSLRAEDTAVYYCARETTGIPTGWFAYWGQGTLVTVSS VL: DIQMTQSPSSLSASVGDRVTITCLASEDIYFDLAWYQQKPGKAPKLLIYGGDRLKDGVPSRFSGSGSGTDYTLTISSLQPEDFATYYCQQSESYPYTFGQGTKLEIKR | 1.69 | 0.53 | –
7 | Ab616 (antibody, human IgG1, kappa, V domains shown, Optimized variant of Ab138; human IgG1 effector null / kappa; HC with or without terminal lysine) VH: EVQLVESGGGLVQPGGSLRLSCAASGFTFEDHYMHWVRQAPGKGLEWVGHISGSAGGYTTESNPAVKGRFTISRDNAKNSLYLQMNSLRAEDTAVYYCARETTRIPTGWFAYWGQGTLVTVSS VL: DIQMTQSPSSLSASVGDRVTITCLASEDIYFDLAWYQQKPGKAPKLLIYGGDRLKEGVPSRFSGSGSGTDYTLTISSLQPEDFATYYCQQSYSYPYTFGQGTKLEIKR | 0.41 | 0.46 | 0.11
8 | Ab656 (antibody, human IgG1, kappa, V domains shown, Optimized variant of Ab138; human IgG1 effector null / kappa; HC with or without terminal lysine) VH: EVQLVESGGGLVQPGGSLRLSCAASGFDFTDHYMHWVRQAPGKGLEWVAHTRDKAGGYTTESNPAVKGRFTISRDNAKNSLYLQMNSLRAEDTAVYYCARETTRIPTGWFAYWGQGTLVTVSS VL: DIQMTQSPSSLSASVGDRVTITCLASEDIYFDLAWYQQKPGKAPKLLIYGGDRLQEGVPSRFSGSGSGTDYTLTISSLQPEDFATYYCQQSYSYPYTFGQGTKLEIKR | 0.48 | 0.54 | 0.22
9 | Ab599 (antibody, human IgG1, kappa, V domains shown, Optimized variant of Ab138; human IgG1 effector null / kappa; HC with or without terminal lysine) VH: EVQLVESGGGLVQPGGSLRLSCAASGFTFTDHYMHWVRQAPGKGLEWVGHISGSAGGYTTESNPAVKGRFTISRDNAKNSLYLQMNSLRAEDTAVYYCARETTRIPTGWFAYWGQGTLVTVSS VL: DIQMTQSPSSLSASVGDRVTITCLASEDIYFDLAWYQQKPGKAPKLLIYGGDRLKEGVPSRFSGSGSGTDYTLTISSLQPEDFATYYCQQSESYPYTFGQGTKLEIKR | 0.3 | 0.52 | 0.08
10 | Ab559 (antibody, human IgG1, kappa, V domains shown, Optimized variant of Ab138; human IgG1 effector null / kappa; HC with or without terminal lysine) VH: EVQLVESGGGLVQPGGSLRLSCAASGFTFTDHYMHWVRQAPGKGLEWVAFIRNKAGGYTTESNPAVKGRFTISRDNAKNSLYLQMNSLRAEDTAVYYCARETTTIPTGWFAYWGQGTLVTVSS VL: DIQMTQSPSSLSASVGDRVTITCLASEDIYFDLAWYQQKPGKAPKLLIYGGDRLKEGVPSRFSGSGSGTDYTLTISSLQPEDFATYYCQQSYSYPYTFGQGTKLEIKR | 1.29 | 0.39 | –
11 | Ab624 (antibody, human IgG1, kappa, V domains shown, Optimized variant of Ab138; human IgG1 effector null / kappa; HC with or without terminal lysine) VH: EVQLVESGGGLVQPGGSLRLSCAASGFDFTDHYMHWVRQAPGKGLEWVAHTRDKAGGYTTESNPAVKGRFTISRDNAKNSLYLQMNSLRAEDTAVYYCARETTRIPTGWFAYWGQGTLVTVSS VL: DIQMTQSPSSLSASVGDRVTITCLASEDIYFDLAWYQQKPGKAPKLLIYGGDRLKEGVPSRFSGSGSGTDYTLTISSLQPEDFATYYCQQSYSYPYTFGQGTKLEIKR | 0.35 | 1.3 | 0.17
12 | Ab609 (antibody, human IgG1, kappa, V domains shown, Optimized variant of Ab138; human IgG1 effector null / kappa; HC with or without terminal lysine) VH: EVQLVESGGGLVQPGGSLRLSCAASGFTFEDHYMHWVRQAPGKGLEWVAHTRDKAGGYTTESNPAVKGRFTISRDNAKNSLYLQMNSLRAEDTAVYYCARETTRIPTGWFAYWGQGTLVTVSS VL: DIQMTQSPSSLSASVGDRVTITCLASEDIYFDLAWYQQKPGKAPKLLIYGGDRLKEGVPSRFSGSGSGTDYTLTISSLQPEDFATYYCQQSESYPYTFGQGTKLEIKR | 0.39 | 0.56 | 0.12

Next, values leading:

Row | Inhibition of CD69 expression, IC50 [1] [nM] | Kd [2] [nM] | Inhibition of IL-2 production, IC50 [1] [nM] | Binder
13 | 1.61 | 0.35 | – | Ab560 (antibody, human IgG1, kappa, V domains shown, Optimized variant of Ab138; human IgG1 effector null / kappa; HC with or without terminal lysine) VH: EVQLVESGGGLVQPGGSLRLSCAASGFTFTDHYMHWVRQAPGKGLEWVAFIRNKAGGYTTESNPAVKGRFTISRDNAKNSLYLQMNSLRAEDTAVYYCARETTTIPTGWFAYWGQGTLVTVSS VL: DIQMTQSPSSLSASVGDRVTITCLASEDIYFDLAWYQQKPGKAPKLLIYGGDRLKEGVPSRFSGSGSGTDYTLTISSLQPEDFATYYCQQSESYPYTFGQGTKLEIKR
14 | 0.99 | 0.27 | – | Ab555 (antibody, human IgG1, kappa, V domains shown, Optimized variant of Ab138; human IgG1 effector null / kappa; HC with or without terminal lysine) VH: EVQLVESGGGLVQPGGSLRLSCAASGFTFTDHYMHWVRQAPGKGLEWVAFIRNSAGGYTTESNPAVKGRFTISRDNAKNSLYLQMNSLRAEDTAVYYCARETTRIPTGWFAYWGQGTLVTVSS VL: DIQMTQSPSSLSASVGDRVTITCLASEDIYFDLAWYQQKPGKAPKLLIYGGDRLKEGVPSRFSGSGSGTDYTLTISSLQPEDFATYYCQQSYSYPYTFGQGTKLEIKR
15 | 0.85 | 0.39 | – | Ab572 (antibody, human IgG1, kappa, V domains shown, Optimized variant of Ab138; human IgG1 effector null / kappa; HC with or without terminal lysine) VH: EVQLVESGGGLVQPGGSLRLSCAASGFTFTDHYMTWVRQAPGKGLEWVAFIRNKAGGYTTESNPAVKGRFTISRDNAKNSLYLQMNSLRAEDTAVYYCARETTGIPTGWFAYWGQGTLVTVSS VL: DIQMTQSPSSLSASVGDRVTITCLASEDIYFDLAWYQQKPGKAPKLLIYGGDRLKEGVPSRFSGSGSGTDYTLTISSLQPEDFATYYCQQSESYPYTFGQGTKLEIKR
16 | 0.38 | 0.32 | 0.14 | Ab585 (antibody, human IgG1, kappa, V domains shown, Optimized variant of Ab138; human IgG1 effector null / kappa; HC with or without terminal lysine) VH: EVQLVESGGGLVQPGGSLRLSCAASGFTFTDHYMHWVRQAPGKGLEWVGHISGSAGGYTTESNPAVKGRFTISRDNAKNSLYLQMNSLRAEDTAVYYCARETTRIPTGWFAYWGQGTLVTVSS VL: DIQMTQSPSSLSASVGDRVTITCLASEDIYFDLAWYQQKPGKAPKLLIYGASTPKDGVPSRFSGSGSGTDYTLTISSLQPEDFATYYCQQSEKYPYTFGQGTKLEIKR
17 | 0.99 | 0.28 | – | Ab514 (antibody, human IgG1, kappa, V domains shown, Optimized variant of Ab138; human IgG1 effector null / kappa; HC with or without terminal lysine) VH: EVQLVESGGGLVQPGGSLRLSCAASGFTFTDHYMHWVRQAPGKGLEWVAFIRNSAGGYTTESNPAVKGRFTISRDNAKNSLYLQMNSLRAEDTAVYYCARETTRIPTGWFAYWGQGTLVTVSS VL: DIQMTQSPSSLSASVGDRVTITCLASEDIYFDLAWYQQKPGKAPKLLIYGASTPKDGVPSRFSGSGSGTDYTLTISSLQPEDFATYYCQQSEKYPYTFGQGTKLEIKR
18 | 0.44 | 0.21 | 0.09 | Ab610 (antibody, human IgG1, kappa, V domains shown, Optimized variant of Ab138; human IgG1 effector null / kappa; HC with or without terminal lysine) VH: EVQLVESGGGLVQPGGSLRLSCAASGFDFTDHYMHWVRQAPGKGLEWVAHTRDKAGGYTTESNPAVKGRFTISRDNAKNSLYLQMNSLRAEDTAVYYCARETTRIPTGWFAYWGQGTLVTVSS VL: DIQMTQSPSSLSASVGDRVTITCLASEDIYFDLAWYQQKPGKAPKLLIYGGDRLKEGVPSRFSGSGSGTDYTLTISSLQPEDFATYYCQQSESYPYTFGQGTKLEIKR
19 | 0.73 | 0.27 | – | Ab579 (antibody, human IgG1, kappa, V domains shown, Optimized variant of Ab138; human IgG1 effector null / kappa; HC with or without terminal lysine) VH: EVQLVESGGGLVQPGGSLRLSCAASGFTFTDHYMTWVRQAPGKGLEWVAFIRNSAGGYTTESNPAVKGRFTISRDNAKNSLYLQMNSLRAEDTAVYYCARETTRIPTGWFAYWGQGTLVTVSS VL: DIQMTQSPSSLSASVGDRVTITCLASEDIYFDLAWYQQKPGKAPKLLIYGGDRLKEGVPSRFSGSGSGTDYTLTISSLQPEDFATYYCQQSYSYPYTFGQGTKLEIKR
